Experimental data as given in patent US20170319675A1.
Each block holds one binder with its values, some of them ahead of it.

Legend:
Assay in all cases: REVEAL MHC-peptide binding assay
HLA-DR1 (human) = target: HLA-DR1 (human)
HLA-DR2 (human) = target: HLA-DR2 (human)
HLA-DR4 (human) = target: HLA-DR4 (human)
HLA-DR5 (human) = target: HLA-DR5 (human)
HLA-DR7 (human) = target: HLA-DR7 (human)

Relative Binding Score (% compared to the positive control) (HLA-DR1 (human)): 0.87
Relative Binding Score (% compared to the positive control) (HLA-DR2 (human)): 0.28
Relative Binding Score (% compared to the positive control) (HLA-DR4 (human)): 5.89
Relative Binding Score (% compared to the positive control) (HLA-DR5 (human)): 0.12
Relative Binding Score (% compared to the positive control) (HLA-DR7 (human)): 3.69
B1: MET-005 (peptide, from a related filing)
peptide: TFSYVDPVITSISPKYG

Relative Binding Score (% compared to the positive control) (HLA-DR1 (human)): 40.1
Relative Binding Score (% compared to the positive control) (HLA-DR2 (human)): 0.05
Relative Binding Score (% compared to the positive control) (HLA-DR4 (human)): 6.12
Relative Binding Score (% compared to the positive control) (HLA-DR5 (human)): 104
Relative Binding Score (% compared to the positive control) (HLA-DR7 (human)): 0.27
B2: BIR-002 (peptide, from a related filing)
peptide: TLGEFLKLDRERAKN
